This note sets out measurements from paper PMC6888414, “Two Homologous Enzymes of the GalU Family in Rhodococcus opacus 1CP—RoGalU1 and RoGalU2” (International Journal of Molecular Sciences, 2019).

In series [1] the target is UDP-glucose pyrophosphorylase RoGalU2 of Rhodococcus opacus 1CP (Rhodococcus opacus 1CP). The experiment in a line: SEC; Superdex 200 10/300 GL, non-denaturing, 50 mM Hepes pH 7.0, 1 mM magnesium chloride; RoGalU2 at 0.2 and 2.0 mg/mL, in duplicates; mass from a calibration with standard proteins. A general note: In gel filtration, larger molecules generally elute earlier.

Substrate in series [2]: O=P(O)(O)O[C@H]1O[C@H](CO)[C@@H](O)[C@H](O)[C@H]1O
The experiment in a line: HPLC of UDP-glucose formation, initial rates. In kind it is biochemical, Rhodococcus opacus. As to conditions: 1.5 mM UTP, 1 mM MgCl2, 50 mM Hepes pH 7.4, 42 °C, glucose 1-phosphate 0.05–10 mM, Michaelis-Menten fit of the low range only, non-Michaelis behaviour above 10 mM. The text has this:
(§1) HPLC of UDP-glucose formation, initial rates on RoGalU2

Substrate in series [3]: O=c1ccn([C@@H]2O[C@H](COP(=O)(O)OP(=O)(O)OP(=O)(O)O)[C@@H](O)[C@H]2O)c(=O)[nH]1
The experiment in a line: HPLC of UDP-glucose formation, initial rates. In kind it is biochemical, Rhodococcus opacus. To be noted: 250 mM glucose 1-phosphate, 1 mM MgCl2, 50 mM Hepes pH 7.4, 42 °C, UTP 0.01–5 mM, Yano and Koga substrate inhibition fit.
Excerpt: as §1

The term stoichiometry N denotes the number of molecules, sites or subunits per partner or assembly. As a reminder, the Km is the substrate concentration at which the rate is half of its maximum. By kcat is commonly meant the number of substrate molecules converted per active site and unit of time at saturation. In general, kcat/Km refers to the turnover number divided by the Michaelis constant.

Take “UDP-glucose pyrophosphorylase RoGalU2 of Rhodococcus opacus 1CP (enzyme)”: the stoichiometry N in series [1] worked out at 6.

B1: RoGalU2 (Rhodococcus opacus) (protein)
chain: MTDAAPHTASAFRTAVVPAAGMGTRFLPATKTVPKELLPVVDTPGIELVAGEAADSGAGRLVIVTSPGKDGVVAHFVEDLVLESKLEASGKYHLLEKVRKAPGLLEVESVIQDEPLGLGHAVGCAESVLDDDEDAIAVLLPDDLVMPRGVLETMSRVRRKRGGTVLCAIDVPKDQVSAYGVFEVETVPDATNPDVLKVIGMVEKPAIEDAPSTFAAAGRYLLDRAIFDALRRIEPGAGGELQLTDAIALLIKEGHPVHVVVHRGTRHDLGNPGGYLRAAVDFALDMEEYGPSLREWLIDRLKRTDS
notes: full length, N-terminal His10 tag (pET16bP), codon-optimized gene in E. coli BL21(DE3) pLysS, HisTrap purified; 34 kDa subunit, hexamer by SEC (188 kDa)
Turning to B1, in series [2], the Km is 900 µM, the turnover number (kcat) was found to be 3.7 s⁻¹ and the catalytic efficiency (kcat/Km) was found to be 4000 M⁻¹ s⁻¹. In addition, in series [3], the Michaelis-Menten constant (Km) turned out to be 510 µM, the kcat stood at 96.2 s⁻¹ and the specificity constant (kcat/Km) amounted to 190000 M⁻¹ s⁻¹.
